Where no end group is shown, it is not given here.
Molecular target: heat-inactivated SARS-CoV-2 spike (S) protein (Severe acute respiratory syndrome coronavirus 2, UniProt P0DTC2)

TBL-SADE: TBS monomer of Formula 1 wherein L=SADE (SEQ ID NO:2) peptide, no further targeting moieties (also: TBS monomer of Formula 1, L = SADE, functionalized)
binding to SARS-CoV-2 spike (S) protein: confirmed binding
